# Patent US20240132578A1 (published 2024)
# Positions count from the first letter of the chain named.
# B1: 1495_C14 (PGC14) (antibody, human IgG1, lambda, V domains shown)
# VH: DGHLVQSGVEVKKTGATVKISCKVSGYSFIDYYLHWVQRAPGKGLEWVGLIDPENGEARYAEKFQGRVTIIADTSIDTGYMEMRSLKSEDTAVYFCAAGAVGADSGSWFDPWGQGTLVTVSS
# VL: SYELTQPPSVSVSPGQTASITCSGSKLGDKYVSWYQLRPGQSPILVMYENDRRPSGIPERFSGSNSGDTATLTISGTQALDEADFYCQAWETTTTTFVFFGGGTQLTVLG
# B2: 1456_P20 (PG20) (antibody, human IgG1, kappa, V domains shown)
# VH: QVRLVQSGPEVKKPGSSVTVSCQASGGTFSSYAFTWVRQAPGQGLEWLGMVTPIFGEAKYSQRFEGRVTITADESTSTTSIELRGLTSEDTAIYYCARDRRAVPIATDNWLDPWGQGTLVTVSS
# VL: DIQLTQSPSSLSASVGDRVSITCRASQTINNYLNWYQQTPGKAPKLLIYGASNLQNGVPSRFSGSGSGTDFTLTISSLQPEDFATYYCQQSFSTPRTFGQGTRLDIKR
# B3: 1460_G14 (PGG14) (antibody, human IgG1, kappa, V domains shown)
# VH: QVLLVQSGTEVKKPGSSVKVSCQASGGAFSSYAFSWVRQAPGQGLEWMGMITPVFGETKYAPRFQGRLTLTAEESLSTTYMELRSLTSDDTAFYYCTRDRRVVPMATDNWLDPWGQGTLVTVSS
# VL: B2 VL with S20T, I21V, N30H, N31T, T39I, N53T, N56S, S76N, F92Y
# B4: 1456_P20 (PG20) (antibody, human IgG1, kappa, V domains shown)
# VH: B2 VH
# VL: B2 VL
# B5: 1460_G14 (PGG14) (antibody, human IgG1, kappa, V domains shown)
# VH: B3 VH
# VL: B2 VL with S20T, I21V, N30H, N31T, T39I, N53T, N56S, S76N, F92Y
# B6: 1495_C14 (PGC14) (antibody, human IgG1, lambda, V domains shown)
# VH: B1 VH
# VL: B1 VL
# B7: B cell culture supernatant of well 1456 P20 (source of antibody 1456_P20 (PG20)) (antibody, V domains shown)
# VH: B2 VH
# VL: DIQLTQSPSSLSASVGDRVSITCRASQTINNYLNWYQQTPGKAPKLLIYGASNLQNGVPSRFSGSGSGTDFTLTISSLQPEDFATYYCQQSFSTPRTFGQGTRLDIK
# B8: B cell culture supernatant of well 1443 C16 (source of antibody 1443_C16 (PG16) (TCN-116)) (antibody, V domains shown)
# VH: QEQLVESGGGVVQPGGSLRLSCLASGFTFHKYGMHWVRQAPGKGLEWVALISDDGMRKYHSDSMWGRVTISRDNSKNTLYLQFSSLKVEDTAMFFCAREAGGPIWHDDVKYYDFNDGYYNYHYMDVWGKGTTVTVSS
# VL: QSALTQPASVSGSPGQTITISCNGTSSDVGGFDSVSWYQQSPGKAPKVMVFDVSHRPSGISNRFSGSKSGNTASLTISGLHIEDEGDYFCSSLTDRSHRIFGGGTKVTVL
# B9: B cell culture supernatant of well 1496 C9 (source of antibody 1496_C09 (PG9) (TCN-109)) (antibody, V domains shown)
# VH: QRLVESGGGVVQPGSSLRLSCAASGFDFSRQGMHWVRQAPGQGLEWVAFIKYDGSEKYHADSVWGRLSISRDNSKDTLYLQMNSLRVEDTATYFCVREAGGPDYRNGYNYYDFYDGYYNYHYMDVWGKGTTVTVSS
# VL: QSALTQPASVSGSPGQSITISCNGTSNDVGGYESVSWYQQHPGKAPKVVIYDVSKRPSGVSNRFSGSKSGNTASLTISGLQAEDEGDYYCKSLTSTRRRVFGTGTKLTVL
# B10: B cell culture supernatant of well 1495 C14 (source of antibody 1495_C14 (PGC14)) (antibody, V domains shown)
# VH: B1 VH
# VL: SYELTQPPSVSVSPGQTASITCSGSKLGDKYVSWYQLRPGQSPILVMYENDRRPSGIPERFSGSNSGDTATLTISGTQALDEADFYCQAWETTTTTFVFFGGGTQLTVL
# B11: B cell culture supernatant of well 1460 G14 (source of antibody 1460_G14 (PGG14)) (antibody, V domains shown)
# VH: B3 VH
# VL: B7 VL with S20T, I21V, N30H, N31T, T39I, N53T, N56S, S76N, F92Y
# What was measured:
# [1] = molecular target: HIV-1 APV-17 Env (clade B pseudovirus) (HIV-1); test: cell-based or functional assay
# [2] = molecular target: HIV-1 APV-13 Env (clade B pseudovirus) (HIV-1); test: cell-based or functional assay
# [3] = molecular target: HIV-1 92BR020 Env (clade B pseudovirus) (HIV-1); test: cell-based or functional assay
# [4] = molecular target: HIV-1 IAVI-C3 Env (clade C pseudovirus) (HIV-1); test: cell-based or functional assay
# [5] = molecular target: HIV-1 IAVI-C22 Env (clade C pseudovirus) (HIV-1); test: cell-based or functional assay
# [6] = molecular target: HIV-1 CMU02 Env (CRF01_AE pseudovirus) (HIV-1); test: cell-based or functional assay
# [7] = molecular target: HIV-1 JRCSF Env (clade B pseudovirus) (HIV-1, UniProt P20871 32-848); test: cell-based or functional assay
# [8] = molecular target: HIV-1 94UG103 Env (clade A pseudovirus) (HIV-1); test: cell-based or functional assay
# [9] = molecular target: HIV-1 APV-6 Env (clade B pseudovirus) (HIV-1); test: cell-based or functional assay
# [10] = molecular target: HIV-1 93IN905 Env (clade C pseudovirus) (HIV-1); test: cell-based or functional assay
# [11] = molecular target: HIV-1 93UG077 Env (clade A pseudovirus) (HIV-1); test: cell-based or functional assay
# [12] = molecular target: HIV-1 92UG024 Env (clade D pseudovirus) (HIV-1); test: cell-based or functional assay
# [13] = molecular target: aMLV envelope (negative control pseudovirus); test: cell-based or functional assay
# [14] = molecular target: HIV-1 92RW020 Env (clade A pseudovirus) (HIV-1); test: cell-based or functional assay
# [15] = molecular target: HIV-1 92TH021 Env (CRF01_AE pseudovirus) (HIV-1); test: cell-based or functional assay
# [16] = molecular target: HIV-1 IAVI-C18 Env (clade C pseudovirus) (HIV-1); test: cell-based or functional assay
# [17] = molecular target: HIV-1 92UG005 Env (clade D pseudovirus) (HIV-1); test: cell-based or functional assay
# recombinant gp41HxB2 = molecular target: T1, recombinant gp41HxB2 (HIV-1 clone HxB2, UniProt P04578 541-682); test: ELISA on recombinant gp41
# T1 construct: domain: gp41
# [18] = molecular target: T2, Recombinant gp41 generated with sequences derived from HxB2 clone of HIV-1, expressed in Pichia pastoris (HIV-1 clone HxB2, UniProt P04578 541-682); test: ELISA, B cell culture supernatant on directly immobilised recombinant gp41
# T2 construct: domain: gp41; also called gp41HxB2
binder,measurement,setting,value
B1,"IC50 (µg/mL), pseudovirus neutralization",[1],> 50 µg/mL
same,"IC50 (µg/mL), pseudovirus neutralization",[2],> 50 µg/mL
same,"IC50 (µg/mL), pseudovirus neutralization",[3],0.64 µg/mL
same,"IC50 (µg/mL), pseudovirus neutralization",[4],9.5 µg/mL
same,"IC50 (µg/mL), pseudovirus neutralization",[5],> 50 µg/mL
same,"IC50 (µg/mL), pseudovirus neutralization",[6],> 50 µg/mL
same,"IC50 (µg/mL), pseudovirus neutralization",[7],> 50 µg/mL
same,"IC50 (µg/mL), pseudovirus neutralization",[8],> 50 µg/mL
same,"IC50 (µg/mL), pseudovirus neutralization",[9],7.41 µg/mL
same,"IC50 (µg/mL), pseudovirus neutralization",[10],> 50 µg/mL
same,"IC50 (µg/mL), pseudovirus neutralization",[11],> 50 µg/mL
same,"IC50 (µg/mL), pseudovirus neutralization",[12],> 50 µg/mL
same,"IC50 (µg/mL), pseudovirus neutralization",[13],> 50 µg/mL
same,"IC50 (µg/mL), pseudovirus neutralization",[14],28.6 µg/mL
same,"IC50 (µg/mL), pseudovirus neutralization",[15],> 50 µg/mL
same,"IC50 (µg/mL), pseudovirus neutralization",[16],> 50 µg/mL
same,"IC50 (µg/mL), pseudovirus neutralization",[17],> 50 µg/mL
B2,"IC50 (µg/mL), pseudovirus neutralization",[1],> 50 µg/mL
same,"IC50 (µg/mL), pseudovirus neutralization",[2],> 50 µg/mL
same,"IC50 (µg/mL), pseudovirus neutralization",[3],> 50 µg/mL
same,"IC50 (µg/mL), pseudovirus neutralization",[4],> 50 µg/mL
same,"IC50 (µg/mL), pseudovirus neutralization",[5],> 50 µg/mL
same,"IC50 (µg/mL), pseudovirus neutralization",[6],> 50 µg/mL
same,"IC50 (µg/mL), pseudovirus neutralization",[7],> 50 µg/mL
same,"IC50 (µg/mL), pseudovirus neutralization",[8],> 50 µg/mL
same,"IC50 (µg/mL), pseudovirus neutralization",[9],25.8 µg/mL
same,"IC50 (µg/mL), pseudovirus neutralization",[10],> 50 µg/mL
same,"IC50 (µg/mL), pseudovirus neutralization",[11],> 50 µg/mL
same,"IC50 (µg/mL), pseudovirus neutralization",[12],> 50 µg/mL
same,"IC50 (µg/mL), pseudovirus neutralization",[13],> 50 µg/mL
same,"IC50 (µg/mL), pseudovirus neutralization",[14],50 µg/mL
same,"IC50 (µg/mL), pseudovirus neutralization",[15],> 50 µg/mL
same,"IC50 (µg/mL), pseudovirus neutralization",[16],> 50 µg/mL
same,"IC50 (µg/mL), pseudovirus neutralization",[17],> 50 µg/mL
B3,"IC50 (µg/mL), pseudovirus neutralization",[1],> 50 µg/mL
same,"IC50 (µg/mL), pseudovirus neutralization",[2],> 50 µg/mL
same,"IC50 (µg/mL), pseudovirus neutralization",[3],> 50 µg/mL
same,"IC50 (µg/mL), pseudovirus neutralization",[4],> 50 µg/mL
same,"IC50 (µg/mL), pseudovirus neutralization",[5],> 50 µg/mL
same,"IC50 (µg/mL), pseudovirus neutralization",[6],> 50 µg/mL
same,"IC50 (µg/mL), pseudovirus neutralization",[7],> 50 µg/mL
same,"IC50 (µg/mL), pseudovirus neutralization",[8],> 50 µg/mL
same,"IC50 (µg/mL), pseudovirus neutralization",[9],> 50 µg/mL
same,"IC50 (µg/mL), pseudovirus neutralization",[10],> 50 µg/mL
same,"IC50 (µg/mL), pseudovirus neutralization",[11],> 50 µg/mL
same,"IC50 (µg/mL), pseudovirus neutralization",[12],> 50 µg/mL
same,"IC50 (µg/mL), pseudovirus neutralization",[13],> 50 µg/mL
same,"IC50 (µg/mL), pseudovirus neutralization",[14],> 50 µg/mL
same,"IC50 (µg/mL), pseudovirus neutralization",[15],> 50 µg/mL
same,"IC50 (µg/mL), pseudovirus neutralization",[16],> 50 µg/mL
same,"IC50 (µg/mL), pseudovirus neutralization",[17],> 50 µg/mL
B4,binding result,recombinant gp41HxB2,no binding
B5,binding result,recombinant gp41HxB2,no binding
B6,binding result,recombinant gp41HxB2,no binding
B7,binding result,[18],no binding
B8,binding result,[18],no binding
B9,binding result,[18],no binding
B10,binding result,[18],no binding
B11,binding result,[18],no binding
